The source of these data is patent US20070178491, “Compositions and Methods for Synthesizing Nucleic Acids” (INVITROGEN CORPORATION, published 2007).

The term Kd denotes the concentration at which binding is half-saturated.

In data set [1] the test system is AccuPrime Protein II (SsoSSB) (Sulfolobus solfataricus). To be noted: CITED Haseltine and Kowalczykowski 2002; about 3 orders of magnitude higher than AccuPrime protein I; cited from earlier work.
Data set [2] addresses T1, AccuPrime protein (AccuPrime Protein I; MjaSSB, Mja RPA SSB) (Methanococcus jannaschii, UniProt Q58559 Q58559:1-645).
T1 sequence: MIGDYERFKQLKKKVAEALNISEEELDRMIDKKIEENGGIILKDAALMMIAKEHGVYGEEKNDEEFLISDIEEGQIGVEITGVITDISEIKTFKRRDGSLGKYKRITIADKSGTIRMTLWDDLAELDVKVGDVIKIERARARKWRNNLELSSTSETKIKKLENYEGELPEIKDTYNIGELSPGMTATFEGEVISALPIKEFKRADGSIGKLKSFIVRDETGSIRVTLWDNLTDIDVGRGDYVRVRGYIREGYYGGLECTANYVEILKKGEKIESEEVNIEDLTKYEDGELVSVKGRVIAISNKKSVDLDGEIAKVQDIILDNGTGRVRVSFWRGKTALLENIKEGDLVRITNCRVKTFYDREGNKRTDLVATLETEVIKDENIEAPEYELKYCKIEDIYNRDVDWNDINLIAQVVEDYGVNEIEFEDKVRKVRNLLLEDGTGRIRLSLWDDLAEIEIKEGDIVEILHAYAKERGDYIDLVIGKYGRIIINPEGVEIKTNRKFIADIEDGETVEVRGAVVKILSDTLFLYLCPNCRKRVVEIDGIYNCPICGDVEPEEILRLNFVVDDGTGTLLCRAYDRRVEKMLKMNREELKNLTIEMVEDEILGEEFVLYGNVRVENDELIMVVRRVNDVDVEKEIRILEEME
Put plainly: EMSA; 20 nM oligo, 0-40 nM protein; near-stoichiometric shift, super-shift, weak negative cooperativity; 20 mM Tris-HCl pH 8.4, 50 mM KCl, 1.5 mM MgCl2, 70 C; text calls it 84-mer or 86-mer. To be noted: tags: expressed in E. coli BL21(DE3), Ni-NTA purified; label: 5'-32P. As to the method:
Single stranded DNA binding. AccuPrime protein affinity for secondary structure of the single stranded DNA was tested with the 84 mer synthetic oligonucleotide KP_PALIN_cont: 5′-CTCCTGGATCGACTTCAGTCCGCTGATGATTAGATGTCGTCCTGGATCGACTTCACTCCGCACCCGCTACCAACAACAGTACCC-3′. The oligonucleotide was radiolabeled at the 5′ end in the same manner as the 5′ (ss) substrate for the exo-nuclease activity assay above with the oligonucleotide concentration at 5 μM.
Single stranded DNA binding. The binding affinity of AccuPrime protein to single stranded DNA (ssDNA) was measured using electrophoretic mobility shift assay (EMSA) on 6% horizontal polyacrylamide gel in TBE. The ssDNA molecules used in the assay were synthetic 86-mer oligonucleotides. The 5′ radiolabeled oligonucleotides were incubated with increasing amounts of the protein in 1×PCR buffer (20 mM Tris-HCl, pH 8.4, 50 mM KCl, 1.5 mM MgCl₂) at 70° C. for 5 min, and an aliquot of the reaction mix was loaded on the gel with currents on. The electrophoresis was continued for 1 hr and the gel was autoradiographed after dried.
Background: In EMSA bound probe runs differently from free probe, usually more slowly.

For single-stranded DNA (unspecified), the Kd in data set [1] is 500 nM.

B1: KP_PALIN_cont (ssDNA)
DNA: CTCCTGGATCGACTTCAGTCCGCTGATGATTAGATGTCGTCCTGGATCGACTTCACTCCGCACCCGCTACCAACAACAGTACCC
On to B1, for which the binding result in data set [2] is reported as “binds”.
